Target: membrane protein on P. aeruginosa (whole cells, membrane fractions, solubilized membrane proteins of (Pseudomonas aeruginosa))

recombinant human IFN-γ (rH IFN-γ), sequence (P01579 24-166 limits assumed): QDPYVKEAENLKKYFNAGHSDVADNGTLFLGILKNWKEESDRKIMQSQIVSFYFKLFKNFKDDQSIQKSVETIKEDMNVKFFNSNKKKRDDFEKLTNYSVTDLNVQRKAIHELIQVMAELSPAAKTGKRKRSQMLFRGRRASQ

recombinant human IFN-γ (rH IFN-γ) (from UniProt P01579 24-166) (ligand)
percent of bacterial cells that bound IFN-γ: 73%
